According to paper PMC7293036:

Tested on: eIF4G HEAT1 domain
Assay: MST

## 5'tiRNAAla
  Kd: 410 nM
